Data on 167 variants can be found in the RNAGym collection of RNA variant scans (doi:10.1073/pnas.2313332121).

First the molecules themselves.
B1: TPR t1 (parent)
chain: GACCAAUCUGCCCUCAGAGCUCGAGAACAUCUUCGGAUGCAGAGGAGGCAGGCUUCGGUGGCGCGAUAGCGCCAACGUCCUCAACCUCCAAUGCAUCCCACCACAUGAUGAUGCCUGAAGAGCCUUGGUUUUUUG

In this series the parent is B1. Description: polymerase ribozyme fitness, log enrichment relative to wild type (log ratio); higher = more active; in vitro selection for triplet polymerase activity. The essentials:
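Genotype fitness is the logarithm of its enrichment divided by wild-type enrichment, using inverse-variance-weighted averages of replicates. That logarithm is base 2. Enrichment was measured by Illumina sequencing of input and output libraries from one triplicate in vitro selection round, with frozen incubation at −7 °C, on PCR-built, transcribed mutant libraries of each subunit of a heterodimeric triplet polymerase ribozyme, retaining genotypes with ≥10 input reads and ≥1 read per output.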
On to U7A A37G G52A C56G G120U, for which the “polymerase ribozyme fitness (log ratio)” value was -0.68.
In the case of A6U G63U it was -1.06; in that of U7C C12A C88A U96A C104U, -1.43.
For the variant A6U G60C G120U, the “polymerase ribozyme fitness (log ratio)” value was determined as 0.248.
For the variant U7A U33A, the “polymerase ribozyme fitness (log ratio)” value was -3.98.
Turning to U7G C53G C115U U116G, the “polymerase ribozyme fitness (log ratio)” value was -0.555.
For A6U C28G G45U C56G C64A G120C, the “polymerase ribozyme fitness (log ratio)” value was -7.29.
The figure for A6G U7A is 0.167; for A6U C49A C62U it is -1.33.
The figure for U7G G61A C76A C94A G110C G117C is -7.29.
The figure for U7G G77C is 0.424.
As for U7G G44A C62G A74U C80G G117C, the “polymerase ribozyme fitness (log ratio)” value was -7.
The figure for U7A A24C C40G G93U U112A C123U is -5.82; for U7G A37C A95C it is 0.483.
For U7G C49U C56U U78C C94U A111C, the “polymerase ribozyme fitness (log ratio)” value was -0.959.
The figure for A6U G117A is -0.258; for U7A G52A G69C it is -2.28; for U7G G10A C49U U112G it is -2.64.
In the case of A6U C56U C85A it was -2.08; in that of A6G G45C, -1.17.
The figure for U7C C28U C49U A50C G120A G122A is -2.33; for U7C G10A C11G A91U A111G it is -1.99; for A6U G45U G52C G69C C72U G122A it is -3.45.
For the variant A6G G71A, the “polymerase ribozyme fitness (log ratio)” value is -0.397.
The figure for A6G G19U C70U is -4.25; for A6U C72A C102A C123G it is 0.361.
The figure for U7G U30A C101U U109A C124A is -3.51; for U7G U32G C98A it is -5.15; for U7G A29U C56A C76U it is -1.78.
The figure for U7C C73A is -0.286.
As for U7A A27C C49U U55G, the “polymerase ribozyme fitness (log ratio)” value is -4.4.
In the case of U7A G48C A74U G113A U130C U133G, the “polymerase ribozyme fitness (log ratio)” value was -1.3.
The figure for U7G C56A G57U C89A is -0.967; for A6U C22U C64U C124U it is -4.12.
The figure for U7C C31U G61C G71U C72G G120U is -5.19; for A6U C124A it is 1.49; for U7A C72U U92C it is -0.872.
In the case of U7G A83U U87A A95U C124A it was 0.494.
Turning to U7C C40A C56G, the “polymerase ribozyme fitness (log ratio)” value was -1.43.
The figure for U7A C12A C20A G42U is -3.2; for U7A G39A G42C G45C A83U G110A it is -5.83.
For the variant U7G G23C C82U C86G G110C, the “polymerase ribozyme fitness (log ratio)” value was -7.53.
Take A6U A46G C70U U133A: the “polymerase ribozyme fitness (log ratio)” value is -1.52.
In the case of U7G G35U G57U U87A A121G it was -3.9.
The figure for A6U C11G G69U C76A U125G is -2.63; for A6U C28U C123U it is -0.417; for A6G G39A A68G C86U G117A it is -5.73.
With A6U C13A C40U C62A A95U, the “polymerase ribozyme fitness (log ratio)” value was -3.6.
The figure for A6U A27U A121G U130A is -0.823; for U7G A46U G63C C102A C104A A111U G128C it is -7.59.
The figure for U7G A16U A43U C49U C70A C89A U116G is -4.88.
In the case of C8A A18G U109C C115A it was -5.42; in that of A6U C72A A84U U132C, -0.139.
Turning to A6G G48U G52C, the “polymerase ribozyme fitness (log ratio)” value was -2.21.
In the case of U7G C94G it was -0.426.
In the case of A6U C13U G39C it was -0.104.
Turning to A6G G17C, the “polymerase ribozyme fitness (log ratio)” value is -4.39.
In the case of U7G U21A U55G A121C it was 1.32.
In the case of A6G G69U G120U, the “polymerase ribozyme fitness (log ratio)” value is 0.637.
In the case of U7A C12A C28G G58A U87G G120U it was -1.72; in that of U7A U33A C70U, -5.78.
With A6U C101A, the “polymerase ribozyme fitness (log ratio)” value is -0.91.
A6U C80A U87A: the “polymerase ribozyme fitness (log ratio)” value is -2.6.
For the variant U7A C22U G39A G44U C53U C56G G63A A68U C124A U125A, the “polymerase ribozyme fitness (log ratio)” value was -6.98.
A6U C72U U96C: the “polymerase ribozyme fitness (log ratio)” value was -0.187.
U7G U14G C34G: the “polymerase ribozyme fitness (log ratio)” value was -5.56.
A6U C53G C99U: the “polymerase ribozyme fitness (log ratio)” value was -4.03.
In the case of U7A C8G A16C A46U C70A it was -3.78; in that of A6U G10A G71A, 0.159; in that of U7G U55G C82U, 0.425.
The figure for A6U G71C G120C C123G is -0.502; for A6U G69A C115U G120C it is -5.82.
The figure for A6U C115G is -1.25; for A6G G36U C80U C88U G110C C124U it is -5.65.
Take U7G C12A A43U C73A: the “polymerase ribozyme fitness (log ratio)” value was -1.44.
In the case of U7G G17A G39A U55A C82G C115A U130C it was -2.79; in that of A6U U30C G60A G122A, -5.6; in that of U7A C20U C73U G120A U129C U131G, -0.869.
The figure for U7A A29U C72U U106A is -1.06; for U7A C40U C85G C104U it is -2.31; for U7A G63U G77C U92G it is -5.12.
In the case of U7G C28U G48A G61A it was -1.28.
Take A6U U38A G63C C79U A84G C89U: the “polymerase ribozyme fitness (log ratio)” value is -3.61.
In the case of U7A U106A C124A it was 1.98; in that of U7G G107A, -4.15.
The figure for A6U A43U U96A G122A is -2.28; for A6U G52C C56U C80G A121G it is -1.97; for U7G A84G U133G G135U it is 0.51.
For the variant A6U A121C, the “polymerase ribozyme fitness (log ratio)” value worked out at 1.91.
Take A6U C11G G69U U125G: the “polymerase ribozyme fitness (log ratio)” value is -1.05.
The figure for U7C U14C C70U is -2.11.
With A6U A50U G57C A75U, the “polymerase ribozyme fitness (log ratio)” value is -0.743.
The figure for U7G G52U C64U C123G is 1.52.
The figure for U7A U14A A119G is 0.0679; for U7A C79G C88G U112A it is -1.87; for A6U U59C A119G it is 0.571.
On to U7G C104A, for which the “polymerase ribozyme fitness (log ratio)” value was -2.23.
The figure for A6U G48A is -0.413.
A6G G39A C86U G117A: the “polymerase ribozyme fitness (log ratio)” value is -0.696.
In the case of U7A C53G A83G A84C it was -0.766.
The figure for U7G G69C C86U is -1.06.
In the case of A6U C22A A43C C79G C97U it was -8.2; in that of U7C A16U C34A C49G, -4.01.
As for U7G G17U G61U, the “polymerase ribozyme fitness (log ratio)” value is -0.326.
The figure for A6U C13G G52A A111C U116G A121C is -1.83; for U7C C8A G48U G63U G120U C123U it is -0.338; for U7G U129A it is -0.778.
In the case of U7A C15A A41C C70U it was -2.92; in that of A6U G44U G52C G69A A121C, -4.22.
For the variant U7C C13A G93A C102A A103U A121C, the “polymerase ribozyme fitness (log ratio)” value was -4.79.
On to A6U A16U A50C A83C U129G, for which the “polymerase ribozyme fitness (log ratio)” value is -3.64.
The figure for A6U C34G G45C C49A C123U is -5.99.
The figure for U7A A41U C72A C85U is -0.761; for U7C U14A A46U it is -2.65.
For the variant A6U C34A, the “polymerase ribozyme fitness (log ratio)” value is -1.85.
In the case of U7A C12U A46U G58A C70A it was -1.97.
As for A6U C12A A16U G19U G42A G63U G93A U106A G120A U130A, the “polymerase ribozyme fitness (log ratio)” value is -7.49.
As to A6U U54C, the “polymerase ribozyme fitness (log ratio)” value turned out to be 0.558.
The figure for U7G C79U C80U is -1.81.
The figure for U7C U78G C82G C99A U112G G128U is -5.9; for U7A C40G it is -0.25; for U7A C40U it is 0.348.
The figure for U7G C72U is 0.255; for U7G C72G it is 0.441.
As to A6U G19A G44A C53A G57A A100U C124U, the “polymerase ribozyme fitness (log ratio)” value is -4.72.
The figure for U7G C40U is 0.849; for U7C C8U C34G it is -6.08.
In the case of A6G U87A U92C A95C C114U it was -3.66.
Take C8A: the “polymerase ribozyme fitness (log ratio)” value was determined as 0.459.
In the case of A6U C11U A46C G51C G57U A121C it was -2.71; in that of U7G A24U C102G U109A, -4.85.
Turning to A6U G42U C49U C101U G110U C123G, the “polymerase ribozyme fitness (log ratio)” value is -6.14.
The figure for U7G C56G C86G U96G is -2.15; for U7A C53U C86U A90G G122A it is -1.97.
In the case of U7A C31U G60A it was -4.77; in that of U7A G48U C94A C97U, -2.33.
As to A6U C22A, the “polymerase ribozyme fitness (log ratio)” value is -4.95.
The figure for U7C C13A C28G G69U A100U is -2.4; for U7A U55A U116C it is -0.198.
The figure for A6G U9C C13G G61C C89U A90U C94U A105U A121G is -5.89.
In the case of U7C G39A C115U G128C it was -3.58; in that of U7A C12G A18C G45A G48A C49A A74G C85U, -5.35; in that of U7G G10U U78C C101A G122A, -1.81.
With A6U G19U, the “polymerase ribozyme fitness (log ratio)” value was -2.29.
Consider U7A A41U C85U, for which the “polymerase ribozyme fitness (log ratio)” value was -1.81.
In the case of U7A A50U G77A it was -1; in that of A6U C15G A43U C115U U116G G120A G122A, -3.93; in that of U7C G48U A50G C89U, -1.26.
As to U7C C56G U78C A84U G113C, the “polymerase ribozyme fitness (log ratio)” value was -2.73.
With U7A C56A A121G, the “polymerase ribozyme fitness (log ratio)” value was determined as 1.68.
The figure for U7A C13A is -0.751; for U7G U21C G47U C56U it is -1.15.
As for U7A U32C U55C G60C U129A, the “polymerase ribozyme fitness (log ratio)” value is -1.82.
In the case of A6U A27U U81A it was -3.93; in that of A6G G117A C124U, -0.162; in that of U7C C89U U109A, -4.17.
In the case of U7A C15A C62U C64U G93U it was -1.99.
In the case of U7A C70A G113C it was -4.53; in that of U7A C73A C82G, -0.0183.
For U7A G71C U81G, the “polymerase ribozyme fitness (log ratio)” value is -5.8.
In the case of U7G C70U A83C C97A it was -5.37; in that of A6G G69A C73A, -2.9.
The figure for A6U C64U U92G is -3.05; for U7A A18U G71A A119U G122U G135U it is -5.8; for A6U G60A C97G A111G U125A G135A it is -6.23.
Take U7A A103U: the “polymerase ribozyme fitness (log ratio)” value was -4.28.
The figure for A6U A18U is -2.27.
